Numbering of substitutions follows the chain as printed. Numbers in names are those of the source.
Legend:
[1] = target: T1, NDC80 complex (Ndc80, Nuf2, Spc24, Spc25), full length, unmodified (Homo sapiens, UniProt O14777 1-642; Q9BZD4 1-464; Q8NBT2 1-197; Q9HBM1 1-224); experiment: SEC; MIS12C variant mixed with NDC80C at 4 µM each; 20 mM HEPES pH 7.8, 150 mM NaCl, 0.5 mM TCEP; Superose 6; fractions on SDS-PAGE; details: both partners purified
T1 construct: Ndc80, subunit of human NDC80C; Nuf2, subunit of human NDC80C; Spc24, subunit of human NDC80C; Spc25, subunit of human NDC80C; The DS tag on Nuf2 is TEV cleavable; a cleavage is not described; Ndc80 and Nuf2 were in the cryo-EM sample but not seen at high resolution; also called wild-type NDC80; source: High-5 insect cells (baculovirus), purified (Strep-Tactin, Resource Q, Superdex 200); copies: …
T1 sequence (O14777 whole entry, chain 1 of 4): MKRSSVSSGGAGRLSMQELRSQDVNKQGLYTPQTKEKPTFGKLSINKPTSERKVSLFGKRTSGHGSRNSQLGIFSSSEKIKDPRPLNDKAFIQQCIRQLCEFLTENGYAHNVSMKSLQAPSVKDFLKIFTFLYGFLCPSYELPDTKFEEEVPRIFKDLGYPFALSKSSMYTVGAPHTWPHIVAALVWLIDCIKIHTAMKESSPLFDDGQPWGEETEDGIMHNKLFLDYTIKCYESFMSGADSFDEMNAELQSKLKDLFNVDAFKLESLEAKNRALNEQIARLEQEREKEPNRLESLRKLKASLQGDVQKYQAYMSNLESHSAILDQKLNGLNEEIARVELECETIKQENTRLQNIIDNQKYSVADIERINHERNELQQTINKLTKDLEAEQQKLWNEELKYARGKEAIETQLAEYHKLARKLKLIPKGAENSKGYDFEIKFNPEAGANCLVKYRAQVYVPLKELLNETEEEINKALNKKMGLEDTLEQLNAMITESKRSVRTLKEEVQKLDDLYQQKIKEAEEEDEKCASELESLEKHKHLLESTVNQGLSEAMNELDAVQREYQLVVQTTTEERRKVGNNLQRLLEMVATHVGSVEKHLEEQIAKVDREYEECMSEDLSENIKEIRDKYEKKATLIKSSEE
T1 sequence (Q9BZD4 whole entry, chain 2 of 4): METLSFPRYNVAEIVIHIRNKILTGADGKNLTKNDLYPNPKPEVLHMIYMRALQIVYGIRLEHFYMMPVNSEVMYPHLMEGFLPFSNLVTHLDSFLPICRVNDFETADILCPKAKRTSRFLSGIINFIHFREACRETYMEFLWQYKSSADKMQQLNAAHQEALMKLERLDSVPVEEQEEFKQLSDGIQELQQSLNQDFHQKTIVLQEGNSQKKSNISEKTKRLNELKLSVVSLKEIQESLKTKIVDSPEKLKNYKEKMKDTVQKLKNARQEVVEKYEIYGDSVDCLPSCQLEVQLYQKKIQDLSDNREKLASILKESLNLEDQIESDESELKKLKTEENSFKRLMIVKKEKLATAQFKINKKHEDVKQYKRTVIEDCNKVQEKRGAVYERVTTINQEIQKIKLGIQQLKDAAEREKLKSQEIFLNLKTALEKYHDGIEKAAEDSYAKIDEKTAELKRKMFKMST
T1 sequence (Q8NBT2 whole entry, chain 3 of 4): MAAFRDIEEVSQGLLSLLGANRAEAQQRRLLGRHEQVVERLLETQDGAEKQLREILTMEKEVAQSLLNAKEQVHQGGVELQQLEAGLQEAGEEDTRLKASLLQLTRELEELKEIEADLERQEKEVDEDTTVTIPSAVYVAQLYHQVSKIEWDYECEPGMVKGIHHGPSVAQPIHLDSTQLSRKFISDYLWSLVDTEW
T1 sequence (Q9HBM1 whole entry, chain 4 of 4): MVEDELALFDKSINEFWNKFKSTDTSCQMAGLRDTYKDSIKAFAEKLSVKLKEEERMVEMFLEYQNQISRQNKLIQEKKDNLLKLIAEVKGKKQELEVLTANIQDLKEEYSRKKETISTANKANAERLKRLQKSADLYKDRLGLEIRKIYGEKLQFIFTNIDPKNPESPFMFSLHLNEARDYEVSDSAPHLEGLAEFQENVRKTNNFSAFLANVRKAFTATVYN

[2] = system: NDC80C; experiment: SEC assessment of MIS12C mutants binding to NDC80C; set-up: species or system Homo sapiens; details: MIS12C mutant + wild-type NDC80 at 4 µM each; 20 mM HEPES pH 7.8, 150 mM NaCl, 0.5 mM TCEP; Superose 6; SDS-PAGE; at least two repeats
Procedure: Assessment of substitutions in the MIS12C–NDC80C interfaces
To test the effect of substitutions in the MIS12C–NDC80C interfaces, either wild-type MIS12C or three MIS12C mutants (MIS12C^Nsl1-E219R V220R F221A, MIS12C^Dsn1-P332W R334A L336R, MIS12C^Nsl1-E219R V220R F221A, Dsn1-P332W R334A L336R) were mixed with wild-type NDC80 at 4 µM each in a buffer of 20 mM HEPES (pH 7.8), 150 mM NaCl and 0.5 mM TCEP, and 50 µl was loaded onto a Superose 6 size-exclusion column (Cytiva).
Extended Data Fig. 7 Biochemical characterization of MIS12C:NDC80C interactions. a Coomassie blue-stained SDS-PAGE gels of the MIS12C:NDC80C interaction reconstitutions. MIS12C (WT), MIS12C with E219/RV220R/F221A substitutions in Nsl1 (MIS12C^Nsl1 E219/RV220R/F221A) and MIS12C with P332W/R334A/L336R substitutions in Dsn1 (MIS12C^Dsn1 P332W/R334A/L336R) were tested for binding to full-length, unmodified NDC80C. The binding experiments were repeated at least two independent times with identical results. The gels are aligned according to the fraction number of the protein sample eluted from the size exclusion column. b SEC elution chromatograms of all of the experiments described in (a). c. Comparison of the Spc24:Spc25 interaction with peptides from MIS12C and CENP-T (PDB ID: 3VZA ref. [29]). Source data

B1: MIS12 complex with Nsl1 E219R V220R F221A (complex, Homo sapiens)
chain 1: MSVDPMTYEAQFFGFTPQTCMLRIYIAFQDYLFEVMQAVEQVILKKLDGIPDCDISPVQIRKCTEKFLCFMKGHFDNLFSKMEQLFLQLILRIPSNILLPEDKCKETPYSEEDFQHLQKEIEQLQEKYKTELCTKQALLAELEEQKIVQAKLKQTLTFFDELHNVGRDHGTSDFRESLVSLVQNSRKLQNIRDNVEKESKRLKIS
chain 2: MAEASSANLGSGCEEKRHEGSSSESVPPGTTISRVKLLDTMVDTFLQKLVAAGSYQRFTDCYKCFYQLQPAMTQQIYDKFIAQLQTSIREEISDIKEEGNLEAVLNALDKIVEEGKVRKEPAWRPSGIPEKDLHSVMAPYFLQQRDTLRRHVQKQEAENQQLADAVLAGRRQVEELQLQVQAQQQAWQALHREQRELVAVLREPE
chain 3: MTSVTRSEIIDEKGPVMSKTHDHQLESSLSPVEVFAKTSASLEMNQGVSEERIHLGSSPKKGGNCDLSHQERLQSKSLHLSPQEQSASYQDRRQSWRRASMKETNRRKSLHPIHQGITELSRSISVDLAESKRLGCLLLSSFQFSIQKLEPFLRDTKGFSLESFRAKASSLSEELKHFADGLETDGTLQKCFEDSNGKASDFSLEASVAEMKEYITKFSLERQTWDQLLLHYQQEAKEILSRGSTEAKITEVKVEPMTYLGSSQNEVLNTKPDYQKILQNQSKVFDCMELVMDELQGSVKQLQAFMDESTQCFQKVSVQLGKRSMQQLDPSPARKLLKLQLQNPPAIHGSGSGSCQ
chain 4: MAGSPELVVLDPPWDKELAAGTESQALVSATPREDFRVRCTSKRAVTEMLQLCGRFVQKLGDALPEEIREPALRDAQWTFESAVQENISINGQAWQEASDNCFMDSDIKVLEDQFDEIIVDIATKRKQYPRKILECVIKTIKAKQEILKQYHPVVHPLDLKYDPDPAPHMENLKCRGETVAKEISEAMKSLPALIEQGEGFSQVLRMQPVIHLQRIHQRRASSCHRKPDAKPENFITQIETTPTETASRKTSDMVLKRKQTKDCPQRKWYPLRPKKINLDT
notes: Mis12, subunit of human MIS12C; Pmf1, subunit of human MIS12C; Dsn1, subunit of human MIS12C; Nsl1, subunit of human MIS12C, E219R V220R F221A; also called MIS12C^(Nsl1-E219R V220R F221A); MIS12C^(Nsl1 E219/RV220R/F221A); source: High-5 insect cells (baculovirus), purified (Strep-Tactin, Resource S, Superdex 200); copies: + + +
binding result [1]: binds

B2: Dsn1-P332W R334A L336R mutant: MIS12C with P332W/R334A/L336R substitutions in Dsn1 (protein)
chain 1: B1 chain 1
chain 2: B1 chain 2
chain 3: B1 chain 3 with P332W, R334A, L336R
chain 4: B1 chain 4 with R219E, R220V, A221F
modifications: left off: double strep II (DS), C-terminal, state not stated
MIS12C–NDC80C interaction by SEC, in words [2]: reduced the affinity of MIS12C for NDC80C

B3: Dsn1-P332W R334A L336R and Nsl1-E219R V220R F221A mutants: MIS12C combining the Dsn1 and Nsl1 interface mutants (protein)
chain 1: B1 chain 1
chain 2: B1 chain 2
chain 3: B1 chain 3 with P332W, R334A, L336R
chain 4: B1 chain 4
modifications: left off: double strep II (DS), C-terminal, state not stated
MIS12C–NDC80C interaction by SEC, in words [2]: completely abolished MIS12C–NDC80C interactions

B4: Nsl1-E219R V220R F221A mutant: MIS12C with E219R V220R F221A substitutions in Nsl1 (protein)
chain 1: B1 chain 1
chain 2: B1 chain 2
chain 3: B1 chain 3
chain 4: B1 chain 4
modifications: left off: double strep II (DS), C-terminal, state not stated
MIS12C–NDC80C interaction by SEC, in words [2]: reduced the affinity of MIS12C for NDC80C
